Experiment [1] deals with Oct4, Sox2, c-Myc and EpCAM. Description: Flow cytometry of stemness markers in MSCs. The experiment is classed as cell-based, human. The conditions noted are these: data not shown. Here is the method:
Cells were dissociated with 0.25% trypsin-EDTA (1 mM) (Invitrogen) for 3 min, washed with fluorescence-activated cell sorting buffer (FACS buffer, PBS containing 1% fetal bovine serum), fixed in 4% PFA, and then permeabilized with 0.1% Triton X-100 in PBS. Subsequently, cells were stained with Oct4, Sox2 or Nanog antibodies (1:100, ab 107156, Abcam, UK), washed and suspended in FACS buffer, and incubated with secondary antibody (1:200, Jackson ImmunoResearch) for 60 min at room temperature. Flow cytometry analysis was performed with a BD FACSCanto II flow cytometer (BD Biosciences, CA, USA).
We used human bone marrow-derived MSCs to study the effects of EpEX and first investigated whether EpEX promotes cell proliferation of MSCs. […] Next, we examined the effect of EpEX on cell cycle progression by flow cytometry with propidium iodide (PI) staining. […] EpCAM has been reported to enhance cell cycle progression through upregulation of the proto-oncogene c-Myc and cyclin A/E (Munz et al., 2004). Additionally, EpCAM is known to upregulate cyclin D1 via its direct interaction partner, FHL2, and downstream events such as phosphorylation of the retinoblastoma protein, Rb (Chaves-Perez et al., 2013). Therefore, we further asked whether EpEX can function to upregulate the expression of cell cycle regulators and pluripotency markers. […]
(In flow cytometry, cells or beads pass a laser one at a time.)

Experiment [2] concerns HMGA2 binding to the promoters of Oct4 and Sox2. Description: ChIP of HMGA2 binding to promoters of pluripotency genes. The experiment is classed as cell-based, human. The conditions noted are these: EpEX treatment, data not shown. Here is the method: MSCs were treated with EpEX (3 μg/mL), and the expression of HMGA2 was detected by immunofluorescence staining. […] To detect the binding of HMGA2 to Oct4 promoters, cross-linked DNA was isolated and then amplified with specific primers by qPCR. […] The gene expression of HMGA2 is detected by qPCR. MSCs were treated with let-7 mimetic and then treated with EpEX (3 μg/mL) for 12 h. The protein abundance of HMGA2 was examined by Western blotting.
We performed chromatin immunoprecipitation (ChIP) with the Pierce™ Magnetic ChIP Kit (Thermo Fisher Scientific), to according the manufacturer's instructions. In brief, the protein-DNA complexes were cross-linked with 1% formaldehyde and quenched by adding glycine to a final concentration of 200 mM. The chromatin complexes were sonicated to an average size of 250 bp by a MISONIX Sonicator 3000. For immunoprecipitation, 4 μg of […] (Novus) was incubated with protein G beads (Invitrogen) for 4 h. The immunocomplexes were further incubated with chromatin for another 4 h. […]
The immunoprecipitated DNA was recovered by a PCR purification kit (Thermo Fisher Scientific), and the purified DNA was subjected to real time quantitative PCR for further analysis. Immunoprecipitation/input was calculated for each gene and each gene was further normalized to the level of mouse β-actin promoter. […]

B1: EpEX: extracellular domain of human EpCAM, 265 amino acids in length (SEQ ID NO: 2) (protein, listed as Homo sapiens)
chain: MAPPQVLAFGLLLAAATATFAAAQEECVCENYKLAVNCFVNNNRQCQCTSVGAQNTVICSKLAAKCLVMKAEMNGSKLGRRAKPEGALQNNDGLYDPDCDESGLFKAKQCNGTSMCWCVNTAGVRRTDKDTEITCSERVRTYWIIIELKHKAREKPYDSKSLRTALQKEITTRYQLDPKFITSILYENNVITIDLVQNSSQKTQNDVDIADVAYYFEKDVKGESLFHSKKMDLTVNGEQLDLDPGQTLIYYVDEKAPEFSMQGLK
Regarding B1, the “protein levels of the stemness markers Oct4, Sox2, c-Myc and EpCAM” value in experiment [1] was “increased”. Moreover, in experiment [2], the “HMGA2 binding to the promoters of Oct4 and Sox2” value was “can induce”.

The record behind these values is US20260125649A1, “MEDIUM COMPOSITION AND METHOD FOR CULTURING MESENCHYMAL STEM CELLS” (ACADEMIA SINICA, priority 2018, published 2026).
